Measurements taken from patent publication US20160333060A1 (UNITED STATES OF AMERICA AS REPRESENTED BY THE SECRETARY …, published 2016).

Molecular target: T1, recombinant HIV-1HXB2 gp41 (Vybion Inc.) (HIV-1 HXB2, UniProt P04578 541-682)
T1 construct: domain: gp41; Bought reagent; also called rgp41
Assay: ELISA, plate-bound recombinant HIV-1HXB2 gp41, serial dilutions of rCNID-1-Trx, detection with rabbit anti-CNID-1

B1: recombinant CNID-1 in fusion with thioredoxin (thioredoxin-hexahistidine-CNID-1) (other)
chain: GRATLGQLKTSTIPPVTFDVPFDGANIPQDVRFTIATVNGGKGALYNAELGESAGHTIVLESDGDHPIPGTFDPKSGRGLDYLPRGLVLFSSHNYVGNMKMYTEPDSDITADFPPGTPFGVSSAITGEGSAFQLNTGIDHTGEFEIIPPNTKRNLAGVFDNEIRSVSPTGGK
modifications: Europium label in the reference-protein ELISA only; otherwise none stated
notes: The N-terminal residue of native CNID-1 is sarcosine; also called rCNID-1-Trx; CNID-1-Trx; not shown: N-terminal thioredoxin (Trx) encoded by the Novagen pET32b(+) Trx fusion vector
Does B1 bind?
Result: no binding
